# Assay results taken from the supplement of paper PMC10567573.
# B1: FCHO1 (parent)
# chain: FSDPSQSDPETKDFWLNMAALTEA
# B2: EPB41L3 (parent)
# chain: SDYISEFRFAPNHTKELEDKVIEL
# Variants of: B1
# Test: protein stability index of a GFP-peptide fusion (GPS, HEK-293T) (PSI 1-6); higher = more stable
# Conditions: c terminus: a fixed tail appended
# 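Note: lentivirally expressed fusions sorted by FACS into six bins by GFP to DsRed ratio, PSI derived from sequencing read proportions per bin multiplied by bin number.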
row,Variant,protein stability index
1,S7Q,3.18
2,S7F,2.63
3,S7N,2.86
4,S7D,3.73
5,S7C,2.9
6,S7T,2.74
7,S7Y,2.69
8,S7H,3.39
9,S7A,3.37
10,S2W,2.93
11,S2G,2.32
12,S2M,3.5
13,S2V,1.93
14,S2P,3.02
15,S2Y,3.28
16,S2K,4.22
17,S2T,2.11
18,S2R,3.79
19,S2C,1.69
20,S2N,1.53
21,T22F,3.23
22,T22R,2.46
23,T22Q,2.9
24,T22C,3.09

row,Variant,protein stability index
1,T22L,2.82
2,T22Y,2.82
3,T22N,2.93
4,T22D,3.04
5,E23T,2.79
6,E23N,2.58
7,E23D,2.75
8,E23A,2.15
9,E23F,1.59
10,E23Y,2.1
11,E23W,2.04
12,E23H,2.17
13,E23R,3.31
14,E23G,2.61
15,M18I,2.37
16,M18A,3.02
17,M18P,3.53
18,M18G,3.27
19,M18R,3.11
20,M18Q,3.77
21,M18W,3.18
22,M18T,2.62
23,M18L,2.57
24,M18Y,3.59

row,Variant,protein stability index
1,M18V,2.56
2,M18C,2.78
3,M18K,2.91
4,F1H,4.7
5,F1G,4.86
6,F1Y,3.26
7,F1I,4.11
8,F1N,4.52
9,F1D,5.36
10,F1M,4.18
11,F1T,4.87
12,A24T,2.52
13,A24D,2.8
14,A24M,2.62
15,A24W,2.8
16,A24P,2.06
17,A24F,2.56
18,A24V,1.82
19,A24E,3.3
20,A24I,1.92
21,A24N,3.23
22,A24R,3.38
23,D3T,1.74
24,D3Y,1.78

row,Variant,protein stability index
1,D3M,1.96
2,D3R,2.06
3,D3S,2.38
4,D3N,2.02
5,D3L,1.74
6,D3W,2.72
7,D3E,2.73
8,A20D,3.25
9,A20I,2.38
10,A20R,2.81
11,A20C,2.34
12,A20W,2.16
13,A20Y,2.44
14,A20P,2.96
15,A20L,2.31
16,A20F,2.24
17,A20H,2.82
18,A20Q,2.63
19,Q6M,2.66
20,Q6G,2.25
21,Q6K,2.52
22,Q6R,2.44
23,Q6H,2.59
24,Q6S,2.66

row,Variant,protein stability index
1,Q6E,3.35
2,Q6I,2.4
3,Q6C,2.64
4,Q6W,1.75
5,Q6D,3.3
6,Q6T,2.68
7,P9C,2.68
8,P9T,3.19
9,P9G,2.77
10,P9L,2.77
11,P9I,2.82
12,P9N,2.63
13,P9S,2.6
14,P9A,3.12
15,P9R,2.8
16,P9V,3.54
17,K12Y,2.97
18,K12Q,3.43
19,K12C,3.04
20,K12R,2.65
21,K12V,2.86
22,K12L,2.62
23,K12A,3.25
24,K12T,3.15

row,Variant,protein stability index
1,K12H,3.2
2,K12W,2.52
3,K12I,3.11
4,K12F,2.6
5,E10Y,2.14
6,E10T,2.12
7,E10Q,2.54
8,E10N,1.9
9,E10I,2.45
10,E10R,2.29
11,E10H,1.97
12,E10M,1.94
13,E10P,2.66
14,E10K,2.04
15,L21C,2.4
16,L21G,2.52
17,L21D,3.27
18,L21I,3
19,L21A,2.63
20,L21S,2.62
21,L21Q,3.3
22,L21M,2.77
23,W15N,4.79
24,W15Y,4.38

row,Variant,protein stability index
1,W15E,4.68
2,W15V,4.77
3,W15R,4.68
4,W15D,5.32
5,W15L,4.59
6,W15F,4.3
7,W15P,4.66
8,L16C,2.1
9,L16Y,2.73
10,L16S,2.32
11,L16K,2.36
12,L16Q,3.59
13,L16T,2.56
14,L16W,2.31
15,L16I,2.32
16,L16N,3.48
17,N17W,2.49
18,N17M,2.73
19,N17D,1.85
20,N17A,2.56
21,N17T,3.03
22,N17F,1.82
23,N17H,2.74
24,N17P,1.94

row,Variant,protein stability index
1,N17Y,2.8
2,A19R,3.21
3,A19Q,3.02
4,A19M,2.54
5,A19N,2.41
6,A19G,2.01
7,A19V,2.25
8,A19Y,2.7
9,A19I,2.47
10,A19C,2.23
11,A19H,1.96
12,D8A,2.62
13,D8M,3.04
14,D8Q,2.24
15,D8L,2.63
16,D8R,2.57
17,D8N,1.95
18,D8F,2.37
19,D8E,3.1
20,F14Q,4.75
21,F14N,4.76
22,F14G,4.83
23,F14E,4.99
24,F14S,4.78

row,Variant,protein stability index
1,F14T,4.57
2,F14A,4.17
3,F14I,3.61
4,S5T,2.84
5,S5V,2.54
6,S5N,2.79
7,S5E,4.46
8,S5P,2.94
9,S5K,2.94
10,S5A,3.03
11,S5I,2.74
12,S5M,3.35
13,S5F,2.27
14,S5D,3.93
15,T11Q,3.15
16,T11D,4.34
17,T11W,1.74
18,T11L,2.13
19,T11E,4.2
20,T11H,2.87
21,T11K,2.49
22,T11F,2.09
23,T11P,3.38
24,T11I,2.7

row,Variant,protein stability index
1,T11Y,2.06
2,T11S,2.98
3,D13A,2.09
4,D13P,2.37
5,D13V,1.65
6,D13M,1.43
7,D13T,2.37
8,D13Q,2.08
9,D13G,2.96
10,D13S,1.47
11,P4G,2.38
12,P4N,2.04
13,P4C,1.99
14,P4M,2.21
15,P4H,2.16
16,P4V,2.65
17,P4S,2.26
18,P4A,2.81
19,P4R,2.02
20,P4T,2.23

# Variants of: B2
# Test: as above
# Conditions: c terminus: a fixed tail appended
row,Variant,protein stability index
1,I4H,3.96
2,I4G,4.11
3,I4A,3.63
4,S1K,1.72
5,S1T,2.01
6,S1L,2.19
7,S1R,1.85
8,S1W,1.76
9,S1F,1.96
10,S1P,2.71
11,A10R,3.54
12,A10T,2.05
13,A10Y,3.09
14,A10F,3.3
15,A10K,3.99
16,E16W,2.07
17,E16G,1.81
18,E16H,2.65
19,E16F,2.81
20,E16A,2.56
21,E16S,2.42
22,E16D,1.82
23,E16K,1.77
24,P11G,2.44
25,P11V,2.23

row,Variant,protein stability index
1,P11F,2.16
2,P11C,2.12
3,P11E,4.36
4,K20E,2.48
5,K20F,2.31
6,K20C,2.13
7,K20N,1.87
8,F7T,4.57
9,F7Y,3.71
10,F7W,2.42
11,F7Q,4.79
12,T14R,2.08
13,T14L,2.23
14,T14A,2.16
15,E23D,2.01
16,E23L,1.93
17,E23C,1.38
18,K15C,2.25
19,K15T,2.1
20,K15Y,1.63
21,K15H,1.97
22,K15L,1.75
23,H13S,2.06
24,H13L,2.31
25,H13D,3.71

row,Variant,protein stability index
1,H13M,2.06
2,H13Y,2.35
3,H13C,2.19
4,H13N,2.36
5,H13K,2.29
6,H13T,2.08
7,F9R,4.58
8,F9V,4.44
9,F9G,4.6
10,F9M,4.03
11,F9P,4.76
12,F9A,4.79
13,S5E,3.79
14,S5G,1.8
15,S5C,1.97
16,S5K,2.75
17,N12H,1.95
18,N12V,2.23
19,N12D,3.9
20,L24V,2.18
21,L24K,2.96
22,L24D,3.11
23,I22S,3.18
24,I22M,2.31
25,R8H,4.48

row,Variant,protein stability index
1,R8V,3.39
2,D19A,1.49
3,D19W,3.08
4,D19T,1.8
5,D19H,1.86
6,D19Q,1.71
7,E6R,2.13
8,E6S,2
9,E6H,1.43
10,E6C,1.92
11,D2T,1.95
12,D2N,1.88
13,Y3R,2.34
14,Y3A,2.76
15,Y3M,2.29
16,L17I,2.37
17,L17E,2.32
18,L17V,2.68
19,L17P,1.96
20,V21P,1.94
21,E18L,1.77
22,E18G,2.53
23,E18M,1.8
